{"source": "paper PMC2841503", "about": "(Molecular cell, 2010)", "biological_target": "yeast ubiquitin (yeast, UniProt P0CG63 1-76)", "sequence (P0CG63 1-76)": "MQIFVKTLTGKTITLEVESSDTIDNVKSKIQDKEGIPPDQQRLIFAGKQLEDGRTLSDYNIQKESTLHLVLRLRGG", "assay": "NMR titration"}
{"binder": "S. cerevisiae Rev1 UBM2 (residues 804-857), GB1-fusion protein (domain or fragment, UniProt P12689 804-857, looked up) LEVNDLPSTMEEQFMNELPTQIRAEVRHDLRIQKKIQQTKLGNLQEKIKRREES", "values": [{"measurement": "binding result", "result": "binds"}]}
